Reference: patent publication US20110086089A1, “USE OF P27KIP1 FOR THE PREVENTION AND TREATMENT OF HEART FAILURE” (UNIVERSITY HEALTH NETWORK, priority 2008, published 2011)

Test system: p27 phosphorylation at S83 and T187 in cardiomyocytes
Assay: p27 phosphorylation at S83 and T187 in Ang II-treated cardiomyocytes (Western blot)
Assay type: cell-based, rat
Conditions: Ang II 4 h; lentiviruses 72 h; DMAT 20 μM pre-incubated 30 min; TAT-conjugated CK2-alpha-prime 2.5 μg/ml 1 h
Description: FIG. 2 is a series of graphs and blots showing Ang II triggers CK2-alpha-prime-dependent phosphorylation of p27 on S83 and T187 in cardiomyocytes. (A) p27 is a substrate of CK2-alpha-prime. […] In vitro kinase assays employing recombinant wt.p27 (1 μg) or phosphorylation site mutants of p27 as substrates were incubated with recombinant CK2-alpha-prime/beta (200 ng). Aliquots of the reaction mixtures were resolved on SDS-PAGE, electrotransferred to nitrocellulose membranes, and the amount of incorporated radioactive [^32P}-label into p27 was quantified with a PhosphorImager and ImageJ software. Individual membranes were probed with anti-CK2-alpha-prime, anti-p27 (input), or phosphorylation site specific antibodies to p27. […] Samples were resolved on SDS-PAGE, transferred to nitrocellulose-membranes, and the amount of incorporated radioactive label into histones was quantified with a PhosphorImager and ImageJ. The input amount of each CK2-alpha-prime and p27 protein used in the kinase reaction mixtures was monitored by immunoblot analysis employing anti-His. […] Biochemically fractionated extracts corresponding to 4×10^5 cells per lane were analyzed by immunoblotting employing antibodies as indicated on the left. […]

B1: kd.CK2-α′: catalytically-inactive kinase-dead CK2-alpha-prime, point mutation K69M; TAT-conjugated protein in mice, lentivirally expressed in cardiomyocytes (protein)
chain: MPGPAAGSRARVYAEVNSLRSREYWDYEAHVPSWGNQDDYQLVRKLGRGKYSEVFEAINITNNERVVVMILKPVKKKKIKREVKILENLRGGTNIIKLIDTVKDPVSKTPALVFEYINNTDFKQLYQILTDFDIRFYMYELLKALDYCHSKGIMHRDVKPHNVMIDHQQKKLRLIDWGLAEFYHPAQEYNVRVASRYFKGPELLVDYQMYDYSLDMWSLGCMLASMIFRREPFFHGQDNYDQLVRIAKVLGTEELYGYLKKYHIDLDPHFNDILGQHSRKRWENFIHSENRHLVSPEALDLLDKLLRYDHQQRLTAKEAMEHPYFYPVVKEQSQPCADNAVLSSGLTAAR
modifications: left off: small tags and cut ends
notes: TAT-conjugated protein in mice, lentivirally expressed in cardiomyocytes
S83/T187 phosphorylation of p27 in cardiomyocytes: abolished
